This note sets out measurements from article PMC10352601 (Blood, 2023).

The assay addresses T1, ET3i, a bioengineered human/porcine FVIII chimera (Homo sapiens / Sus scrofa chimera (A1, …, chimera)).
T1 chain: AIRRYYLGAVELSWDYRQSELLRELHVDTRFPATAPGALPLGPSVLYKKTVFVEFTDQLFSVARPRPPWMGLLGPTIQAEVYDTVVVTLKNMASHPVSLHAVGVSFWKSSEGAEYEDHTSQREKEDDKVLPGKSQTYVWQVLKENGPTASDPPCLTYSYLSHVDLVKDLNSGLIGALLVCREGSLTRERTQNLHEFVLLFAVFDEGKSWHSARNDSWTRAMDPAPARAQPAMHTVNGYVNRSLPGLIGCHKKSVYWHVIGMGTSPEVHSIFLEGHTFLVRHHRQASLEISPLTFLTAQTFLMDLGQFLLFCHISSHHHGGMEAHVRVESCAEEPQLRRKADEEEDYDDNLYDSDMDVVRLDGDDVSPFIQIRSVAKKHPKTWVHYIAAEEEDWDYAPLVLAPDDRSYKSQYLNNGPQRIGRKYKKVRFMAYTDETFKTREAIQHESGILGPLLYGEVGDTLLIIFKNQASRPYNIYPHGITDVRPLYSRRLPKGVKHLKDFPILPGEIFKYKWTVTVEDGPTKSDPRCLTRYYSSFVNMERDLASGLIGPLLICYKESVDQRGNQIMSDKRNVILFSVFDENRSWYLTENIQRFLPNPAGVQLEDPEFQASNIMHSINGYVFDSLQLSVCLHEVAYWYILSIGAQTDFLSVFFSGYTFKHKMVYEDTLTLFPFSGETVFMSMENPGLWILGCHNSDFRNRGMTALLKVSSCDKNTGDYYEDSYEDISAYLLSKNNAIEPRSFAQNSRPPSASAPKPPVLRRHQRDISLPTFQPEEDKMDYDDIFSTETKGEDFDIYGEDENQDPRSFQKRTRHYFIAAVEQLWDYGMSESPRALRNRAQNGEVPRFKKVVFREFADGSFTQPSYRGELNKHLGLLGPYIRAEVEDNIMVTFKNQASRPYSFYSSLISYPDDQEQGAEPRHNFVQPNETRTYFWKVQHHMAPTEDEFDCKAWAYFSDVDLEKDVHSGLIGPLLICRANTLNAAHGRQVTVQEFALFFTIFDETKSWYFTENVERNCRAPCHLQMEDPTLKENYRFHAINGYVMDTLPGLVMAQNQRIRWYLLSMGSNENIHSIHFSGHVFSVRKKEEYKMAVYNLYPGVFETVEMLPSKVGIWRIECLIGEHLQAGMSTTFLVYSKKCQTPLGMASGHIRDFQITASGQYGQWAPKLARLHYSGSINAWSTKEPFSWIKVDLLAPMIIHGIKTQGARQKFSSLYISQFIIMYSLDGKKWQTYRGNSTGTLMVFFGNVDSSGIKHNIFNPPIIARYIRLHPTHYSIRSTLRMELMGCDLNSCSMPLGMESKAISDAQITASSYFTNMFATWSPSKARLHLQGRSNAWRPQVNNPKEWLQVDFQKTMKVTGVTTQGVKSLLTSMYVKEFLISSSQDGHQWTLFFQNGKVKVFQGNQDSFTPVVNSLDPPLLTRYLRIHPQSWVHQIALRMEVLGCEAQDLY
Kind of assay: cell-based or functional assay.

B1: Fab fragment of NB33, a recombinant immunoglobulin G derivative of KM33 (Fab, V domains shown)
VH: EVQLVESGGGVVQPGRSLRLSCVDSGLTFSSYGMHWVRQAPGAGLEWVAVISYDGNDKYYADSVKGRFAISRDNAKNTLYLQMNSLTIEDTAVYYCAKDLIESNIAEAFWGQGTLVTVSS
VL: DIQMTQSPSSLSASVGDTVTIACRASRDIRNDLAWYQQKPGKAPKLLIYATSRLQSGVPSRFSGSGSFTDFTLTINSLQPDDSATYYCLQDSDYPLTFGGGTKVDIK
Turning to B1, the “neutralization of ET3i by NB33, factor X activation chromogenic assay (IC50)” value turned out to be 3.64 nM.
